Measured values reported in patent US20060147922A1 (published 2006).

Tests used:
[1] = biological target: T1, EDDF2, central domain of EDD (aa 889-1877) (human, UniProt O95071 889-1877); assay: GSTchk2-N pull-down of IVT EDD deletion mutants
T1 construct: In vitro translated, 35S-labelled; also called central third; central region of EDD
T1 sequence: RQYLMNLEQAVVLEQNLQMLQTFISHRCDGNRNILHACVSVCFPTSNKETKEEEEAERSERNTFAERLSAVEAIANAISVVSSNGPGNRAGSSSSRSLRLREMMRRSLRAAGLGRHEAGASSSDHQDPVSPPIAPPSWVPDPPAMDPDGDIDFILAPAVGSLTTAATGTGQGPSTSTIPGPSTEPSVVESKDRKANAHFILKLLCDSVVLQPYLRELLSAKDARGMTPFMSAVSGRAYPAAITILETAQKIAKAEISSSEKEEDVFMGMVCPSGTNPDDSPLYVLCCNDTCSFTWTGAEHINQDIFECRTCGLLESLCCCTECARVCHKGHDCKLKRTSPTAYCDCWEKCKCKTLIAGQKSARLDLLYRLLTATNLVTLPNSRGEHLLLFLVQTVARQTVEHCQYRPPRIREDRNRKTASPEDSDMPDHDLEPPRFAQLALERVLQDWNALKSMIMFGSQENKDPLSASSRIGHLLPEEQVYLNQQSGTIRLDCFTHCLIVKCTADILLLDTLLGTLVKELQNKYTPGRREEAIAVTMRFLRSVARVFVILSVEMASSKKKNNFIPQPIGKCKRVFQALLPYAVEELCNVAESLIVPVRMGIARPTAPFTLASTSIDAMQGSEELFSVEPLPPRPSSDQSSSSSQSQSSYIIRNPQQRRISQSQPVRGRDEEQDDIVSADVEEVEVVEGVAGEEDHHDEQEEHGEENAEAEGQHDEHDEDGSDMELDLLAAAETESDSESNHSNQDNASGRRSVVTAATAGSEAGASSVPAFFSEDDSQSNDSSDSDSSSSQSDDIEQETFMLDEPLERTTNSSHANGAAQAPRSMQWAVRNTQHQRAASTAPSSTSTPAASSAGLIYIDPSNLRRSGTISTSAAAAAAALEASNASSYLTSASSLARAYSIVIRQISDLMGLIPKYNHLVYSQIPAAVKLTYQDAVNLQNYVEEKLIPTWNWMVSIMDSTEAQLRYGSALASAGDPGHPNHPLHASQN

[2] = biological target: T2, EDDF3, carboxy domain of EDD (aa 1877-2799) (human, UniProt O95071 1877-2799); assay: GSTchk2-N pull-down of IVT EDD deletion mutants
T2 construct: In vitro translated, 35S-labelled; also called carboxy third; carboxy terminal region of EDD
T2 sequence: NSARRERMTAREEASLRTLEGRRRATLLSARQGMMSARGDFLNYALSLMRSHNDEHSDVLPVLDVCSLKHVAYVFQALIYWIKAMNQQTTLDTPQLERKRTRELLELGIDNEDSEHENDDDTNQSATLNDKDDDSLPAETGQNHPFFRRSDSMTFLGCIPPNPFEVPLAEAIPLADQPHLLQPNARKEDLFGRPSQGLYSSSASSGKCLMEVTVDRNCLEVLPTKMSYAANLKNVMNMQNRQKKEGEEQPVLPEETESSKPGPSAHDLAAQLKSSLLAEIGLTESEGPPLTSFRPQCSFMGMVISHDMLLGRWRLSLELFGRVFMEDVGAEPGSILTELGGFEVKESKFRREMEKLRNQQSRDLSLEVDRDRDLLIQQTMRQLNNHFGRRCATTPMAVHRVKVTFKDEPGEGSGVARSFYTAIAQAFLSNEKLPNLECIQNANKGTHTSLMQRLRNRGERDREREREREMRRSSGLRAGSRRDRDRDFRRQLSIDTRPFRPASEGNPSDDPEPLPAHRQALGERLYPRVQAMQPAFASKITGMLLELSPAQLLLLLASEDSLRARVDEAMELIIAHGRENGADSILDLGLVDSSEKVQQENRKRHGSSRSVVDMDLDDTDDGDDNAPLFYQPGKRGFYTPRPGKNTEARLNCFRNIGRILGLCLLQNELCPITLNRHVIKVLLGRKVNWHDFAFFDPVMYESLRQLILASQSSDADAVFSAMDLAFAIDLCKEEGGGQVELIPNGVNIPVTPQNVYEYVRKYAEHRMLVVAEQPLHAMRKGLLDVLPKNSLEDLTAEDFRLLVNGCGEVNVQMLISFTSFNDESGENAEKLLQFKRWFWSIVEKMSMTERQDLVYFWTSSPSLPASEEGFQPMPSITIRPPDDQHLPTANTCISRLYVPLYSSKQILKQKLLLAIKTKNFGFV

- binding result [1]: no binding
- binding result [2]: no binding
B1: GSTchk2-N (GST fused to chk2 aa 1-225) (other)
chain: MSRESDVEAQQSHGSSACSQPHGSVTQSQGSSSQSQGISSSSTSTMPNSSQSSHSSSGTLSSLETVSTQELYSIPEDQEPEDQEPEEPTPAPWARLWALQDGFANLECVNDNYWFGRDKSCEYCFDEPLLKRTDKYRTYSKKHFRIFREVGPKNSYIAYIEDHSGNGTFVNTELVGKGKRRPLNNNSEIALSLSRNKVFVFFDLTVDDQSVYPKALRDEYIMSKT
notes: contains the SQ/TQ and FHA domains; also called GSTCHK2-N (WT); chk2 N-terminus; not shown: glutathione S-transferase (GST) fusion partner
